# Source: PMC12363564, “Modulation of the PTPRS proteoglycan switch by antibodies binding to the membrane-proximal fibronectin-type III domain” (The Journal of Biological Chemistry, 2025)
# Target: T1, C-terminally 6xHis tagged mouse PTPRS (mPTPRS) ECD (Mus musculus, UniProt B0V2N1)
# T1 construct: also called mPTPRS ectodomain; PTPRS ectodomain; source: HEK293T, transiently transfected, supernatant; purified (Ni-NTA, HiTrap heparin); not shown: His6, C-terminal, kept
# Assay: BLI; data not shown; 9H5 on C-terminally 6xHis tagged mPTPRS ECD immobilised on an anti-6xHis probe
# Conditions: both partners purified
# T1 sequence (B0V2N1 30-1257): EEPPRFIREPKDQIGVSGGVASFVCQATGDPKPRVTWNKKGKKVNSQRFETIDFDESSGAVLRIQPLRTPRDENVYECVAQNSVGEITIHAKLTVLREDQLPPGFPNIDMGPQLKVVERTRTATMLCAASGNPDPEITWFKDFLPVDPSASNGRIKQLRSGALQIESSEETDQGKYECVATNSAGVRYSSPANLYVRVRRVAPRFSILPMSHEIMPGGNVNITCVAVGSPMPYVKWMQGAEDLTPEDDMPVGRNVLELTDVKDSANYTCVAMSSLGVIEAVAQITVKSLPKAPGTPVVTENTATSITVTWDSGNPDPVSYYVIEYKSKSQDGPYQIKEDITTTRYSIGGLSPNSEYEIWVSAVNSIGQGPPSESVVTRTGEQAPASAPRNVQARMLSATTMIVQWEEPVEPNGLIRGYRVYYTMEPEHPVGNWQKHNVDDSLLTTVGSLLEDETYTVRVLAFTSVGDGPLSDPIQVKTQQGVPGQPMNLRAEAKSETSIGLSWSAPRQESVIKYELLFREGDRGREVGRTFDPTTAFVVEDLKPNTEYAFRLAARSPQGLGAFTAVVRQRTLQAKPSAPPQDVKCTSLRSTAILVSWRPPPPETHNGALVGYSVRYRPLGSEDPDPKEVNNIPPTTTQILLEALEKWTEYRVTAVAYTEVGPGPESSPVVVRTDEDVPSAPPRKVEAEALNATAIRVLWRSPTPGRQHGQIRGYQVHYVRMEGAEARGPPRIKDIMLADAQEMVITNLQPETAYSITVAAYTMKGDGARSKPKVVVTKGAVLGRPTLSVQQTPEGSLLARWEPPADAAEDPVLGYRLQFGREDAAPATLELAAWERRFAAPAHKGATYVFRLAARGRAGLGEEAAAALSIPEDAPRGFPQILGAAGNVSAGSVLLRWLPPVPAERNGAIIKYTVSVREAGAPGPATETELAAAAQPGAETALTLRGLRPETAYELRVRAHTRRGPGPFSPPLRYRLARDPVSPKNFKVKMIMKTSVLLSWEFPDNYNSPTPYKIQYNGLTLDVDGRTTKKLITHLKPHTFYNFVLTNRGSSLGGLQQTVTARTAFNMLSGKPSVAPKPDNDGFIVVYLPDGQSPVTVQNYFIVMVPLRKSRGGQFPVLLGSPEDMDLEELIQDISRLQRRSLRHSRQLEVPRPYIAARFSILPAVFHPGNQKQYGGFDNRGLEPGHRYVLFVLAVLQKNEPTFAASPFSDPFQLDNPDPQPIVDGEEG
binder,measurement,value
"9H5 (mouse monoclonal antibody, IgG1/κ) (antibody, V domains shown, VH of 9H5; constant region of the mouse IgG1 heavy chain; VL of 9H5; constant region of the mouse κ light chain; IgG1/κ; source: production contracted to Viva Biotech) VH: QVQLVETGGGLVRPGNSLKLSCVTSGFTFSNYRMHWLRQPPGKRLEWIAVITVKSDNYGANYAESVKGRFTISRDDSKSSVYLQMNRLREEDTATYYCSRSVYYGYVLAFDYWGQGTTLTVSS VL: DIQMTQTTSSLSASLGDRVTISCRASQDISNYLNWYQQKPDGTVKLLIYYTSRLHSGVPSRFSGSGSGTDYSLTISNLEQEDIATYFCQQGNTLPWTFGGGTKLEIK",binding result,no binding
